The values below come from publication PMC8142252, “The Arabidopsis thaliana chloroplast division protein FtsZ1 counterbalances FtsZ2 filament stability in vitro” (The Journal of Biological Chemistry, 2021).

This experiment has as its target T1, AtFtsZ2 (Arabidopsis thaliana FtsZ2-1, full-length mature protein lacking its transit peptide) (Arabidopsis thaliana, UniProt O82533 49-478).
T1 construct: Purified AtFtsZ2 runs as a doublet on SDS-PAGE; also called AtFtsZ2-1; source: E. coli DE3 Rosetta cells overexpressing the E. coli ftsQAZ operon, purified (Ni-NTA); not shown: His6, C-terminal, kept
T1 sequence (looked up): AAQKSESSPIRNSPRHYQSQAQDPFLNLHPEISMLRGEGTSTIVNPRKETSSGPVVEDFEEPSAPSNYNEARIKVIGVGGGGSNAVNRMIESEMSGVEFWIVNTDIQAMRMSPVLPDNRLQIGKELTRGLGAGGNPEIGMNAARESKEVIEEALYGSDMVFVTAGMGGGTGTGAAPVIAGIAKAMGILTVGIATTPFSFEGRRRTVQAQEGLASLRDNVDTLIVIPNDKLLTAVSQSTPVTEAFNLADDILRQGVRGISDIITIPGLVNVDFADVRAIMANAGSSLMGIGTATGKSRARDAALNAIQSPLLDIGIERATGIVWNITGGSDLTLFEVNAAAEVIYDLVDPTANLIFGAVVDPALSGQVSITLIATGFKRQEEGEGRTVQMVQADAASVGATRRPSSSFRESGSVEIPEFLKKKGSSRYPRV
The experiment in a line: 90° light scattering; 5 μM AtFtsZ2 (or AtFtsZ2core) mixed with AtFtsZ1, AtFtsZ1 D275A (or AtFtsZ1core) at various ratios before start, HMK buffer, room temperature, started by 10 μM or 500 μM GTP. The note with it: both partners purified.

B1: AtFtsZ1 (Arabidopsis thaliana FtsZ1-1, full-length mature protein lacking its transit peptide) (natural protein, UniProt Q42545 58-433, looked up)
chain: RSKSMRLRCSFSPMESARIKVIGVGGGGNNAVNRMISSGLQSVDFYAINTDSQALLQSSAENPLQIGELLTRGLGTGGNPLLGEQAAEESKDAIANALKGSDLVFITAGMGGGTGSGAAPVVAQISKDAGYLTVGVVTYPFSFEGRKRSLQALEAIEKLQKNVDTLIVIPNDRLLDIADEQTPLQDAFLLADDVLRQGVQGISDIITIPGLVNVDFADVKAVMKDSGTAMLGVGVSSSKNRAEEAAEQATLAPLIGSSIQSATGVVYNITGGKDITLQEVNRVSQVVTSLADPSANIIFGAVVDDRYTGEIHVTIIATGFSQSFQKTLLTDPRAAKLLDKMGSSGQQENKGMSLPHQKQSPSTISTKSSSPRRLFF
notes: also called AtFtsZ1-1; source: E. coli DE3 Rosetta cells overexpressing the E. coli ftsQAZ operon, purified (Ni-NTA); not shown: His6, C-terminal, kept
For the molecule B1, the binding result is “binds”.
